Experimental findings from publication PMC6668440, “A one-gate elevator mechanism for the human neutral amino acid transporter ASCT2” (Nature Communications, 2019) are described below.

This series deals with the molecule itself. The series can be described thus: cryo-EM structure; single particle cryo-EM of the purified transporter in mixed DDM + CHS micelles (20 mM Tris-HCl pH 7.4, 300 mM NaCl); ASCT2_(C467R) with 1 mM DL-TBOA and without inhibitor, ASCT2wt without substrate; C3 symmetry imposed, classifications without symmetry also done.

B1: human Alanine Serine Cysteine Transporter 2 with the C467R mutation (ASCT2_(C467R)) (natural protein)
chain: MVADPPRDSKGLAAAEPTANGGLALASIEDQGAAAGGYCGSRDQVRRCLRANLLVLLTVVAVVAGVALGLGVSGAGGALALGPERLSAFVFPGELLLRLLRMIILPLVVCSLIGGAASLDPGALGRLGAWALLFFLVTTLLASALGVGLALALQPGAASAAINASVGAAGSAENAPSKEVLDSFLDLARNIFPSNLVSAAFRSYSTTYEERNITGTRVKVPVGQEVEGMNILGLVVFAIVFGVALRKLGPEGELLIRFFNSFNEATMVLVSWIMWYAPVGIMFLVAGKIVEMEDVGLLFARLGKYILCCLLGHAIHGLLVLPLIYFLFTRKNPYRFLWGIVTPLATAFGTSSSSATLPLMMKCVEENNGVAKHISRFILPIGATVNMDGAALFQCVAAVFIAQLSQQSLDFVKIITILVTATASSVGAAGIPAGGVLTLAIILEAVNLPVDHISLILAVDWLVDRSRTVLNVEGDALGAGLLQNYVDRTESRSTEPELIQVKSELPLDPLPVPTEEGNPLLKHYRGPAGDATVASEKESVM
notes: human ASCT2 (SLC1A5), codon optimised gene on the pPICZ-A plasmid, with the single point mutation C467R; residues 43-159 and 177-489 were modelled in the map; Homotrimer (172 kDa) in DDM + CHS micelles; the tag and the limits are not described here; also called SLC1A5 C467R; source: Pichia pastoris X-33, purified (DDM/CHS solubilisation, Ni2+-Sepharose, Superdex 200 SEC)
Usually stoichiometry N stands for the number of molecules, sites or subunits per partner or assembly. For the protein B1, the “stoichiometry N” value was 3.

B2: human Alanine Serine Cysteine Transporter 2, wild type (ASCT2wt) (natural protein)
chain: MVADPPRDSKGLAAAEPTANGGLALASIEDQGAAAGGYCGSRDQVRRCLRANLLVLLTVVAVVAGVALGLGVSGAGGALALGPERLSAFVFPGELLLRLLRMIILPLVVCSLIGGAASLDPGALGRLGAWALLFFLVTTLLASALGVGLALALQPGAASAAINASVGAAGSAENAPSKEVLDSFLDLARNIFPSNLVSAAFRSYSTTYEERNITGTRVKVPVGQEVEGMNILGLVVFAIVFGVALRKLGPEGELLIRFFNSFNEATMVLVSWIMWYAPVGIMFLVAGKIVEMEDVGLLFARLGKYILCCLLGHAIHGLLVLPLIYFLFTRKNPYRFLWGIVTPLATAFGTSSSSATLPLMMKCVEENNGVAKHISRFILPIGATVNMDGAALFQCVAAVFIAQLSQQSLDFVKIITILVTATASSVGAAGIPAGGVLTLAIILEAVNLPVDHISLILAVDWLVDRSCTVLNVEGDALGAGLLQNYVDRTESRSTEPELIQVKSELPLDPLPVPTEEGNPLLKHYRGPAGDATVASEKESVM
notes: human ASCT2 (SLC1A5), codon optimised gene on the pPICZ-A plasmid; Only a map (6.98 Å, C3 imposed) was deposited, no model; also called SLC1A5
Take B2: the binding result is reported as “binds”.
